Experimental data reported in the supplement of paper PMC5998384.

Assays:
[1] = system: HeLa Kyoto; assay: melting temperature (median over replicates), in situ; higher = more thermally stable
[2] = system: HeLa Kyoto; assay: solubility change mitosis vs G1/S (difference of NP-40 vs SDS log2 ratios) (log2 ratio difference); higher = more soluble in mitosis
[3] = system: HeLa Kyoto; assay: solubility in G1/S (NP-40 vs SDS abundance) (log2 ratio); higher = more soluble; conditions: cell cycle stage: G1/S
[4] = system: HeLa Kyoto; assay: thermal stability score vs G1/S (z-score of summed log2 fold changes over temperatures); higher = more thermally stable than in G1/S
[5] = cell cycle stage: early G1 (4.5 h after nocodazole release)
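Throughout, for melting temperature (median over replicates), in situ: HeLa Kyoto cells synchronized by double thymidine or nocodazole block, proteins quantified by TMT10plex mass spectrometry, three independent biological replicates.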
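Throughout, for solubility change mitosis vs G1/S (difference of NP-40 vs SDS log2 ratios): synchronized HeLa Kyoto cells (double thymidine block for G1/S, nocodazole release for mitosis), protein amounts in NP-40 versus SDS lysates quantified by mass spectrometry, three biological replicates.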
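Throughout, for solubility in G1/S (NP-40 vs SDS abundance): HeLa Kyoto cells arrested at G1/S by double thymidine block, proteins quantified by TMT10plex mass spectrometry in mild NP-40 versus SDS extracts, three biological replicates.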
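Throughout, for thermal stability score vs G1/S (z-score of summed log2 fold changes over temperatures): synchronized HeLa Kyoto cells, proteins quantified by TMT10plex mass spectrometry, three biological replicates, mitosis taken 0.5 h after nocodazole release, G1/S directly after double thymidine block.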

MAAQSAPKVVLKSTTKMSLNERFTNMLKNKQPTPVNIRASMQQQQQLASARNRRLAQQMENRPSVQAALKLKQSLKQRLGKSNIQARLGRPIGALARGAIGGRGLPIIQRGLPRGGLRGGRATRTLLRGGMSLRGQNLLRGGRAVAPRMGLRRGGVRGRGGPGRGGLGRGAMGRGGIGGRGRGMIGRGRGGFGGRGRGRGRGRGALARPVLTKEQLDNQLDAYMSKTKGHLDAELDAYMAQTDPETND [CHTOP]
melting temperature ([1]; cell cycle stage: G1/S): 51 °C
melting temperature ([1]; cell cycle stage: mitosis): 51.7 °C
solubility change mitosis (log2) [2]: 0.761
solubility in G1/S (log2) [3]: -0.246
thermal stability score [4, 5]: -2.91
thermal stability score ([4]; cell cycle stage: mitosis): -0.126

MAAQSSLYNDDRNLLRIREKERRNQEAHQEKEAFPEKIPLFGEPYKTAKGDELSSRIQNMLGNYEEVKEFLSTKSHTHRLDASENRLGKPKYPLIPDKGSSIPSSSFHTSVHHQSIHTPASGPLSVGNISHNPKMAQPRTEPMPSLHAKSCGPPDSQHLTQDRLGQEGFGSSHHKKGDRRADGDHCASVTDSAPERELSPLISLPSPVPPLSPIHSNQQTLPRTQGSSKVHGSSNNSKGYCPAKSPKDLAVKVHDKETPQDSLVAPAQPPSQTFPPPSLPSKSVAMQQKPTAYVRPMDGQDQAPSESPELKPLPEDYRQQTFEKTDLKVPAKAKLTKLKMPSQSVEQTYSNEVHCVEEILKEMTHSWPPPLTAIHTPSTAEPSKFPFPTKDSQHVSSVTQNQKQYDTSSKTHSNSQQGTSSMLEDDLQLSDSEDSDSEQTPEKPPSSSAPPSAPQSLPEPVASAHSSSAESESTSDSDSSSDSESESSSSDSEENEPLETPAPEPEPPTTNKWQLDNWLTKVSQPAAPPEGPRSTEPPRRHPESKGSSDSATSQEHSESKDPPPKSSSKAPRAPPEAPHPGKRSCQKSPAQQEPPQRQTVGTKQPKKPVKASARAGSRTSLQGEREPGLLPYGSRDQTSKDKPKVKTKGRPRAAASNEPKPAVPPSSEKKKHKSSLPAPSKALSGPEPAKDNVEDRTPEHFALVPLTESQGPPHSGSGSRTSGCRQAVVVQEDSRKDRLPLPLRDTKLLSPLRDTPPPQSLMVKITLDLLSRIPQPPGKGSRQRKAEDKQPPAGKKHSSEKRSSDSSSKLAKKRKGEAERDCDNKKIRLEKEIKSQSSSSSSSHKESSKTKPSRPSSQSSKKEMLPPPPVSSSSQKPAKPALKRSRREADTCGQDPPKSASSTKSNHKDSSIPKQRRVEGKGSRSSSEHKGSSGDTANPFPVPSLPNGNSKPGKPQVKFDKQQADLHMREAKKMKQKAELMTDRVGKAFKYLEAVLSFIECGIATESESQSSKSAYSVYSETVDLIKFIMSLKSFSDATAPTQEKIFAVLCMRCQSILNMAMFRCKKDIAIKYSRTLNKHFESSSKVAQAPSPCIASTGTPSPLSPMPSPASSVGSQSSAGSVGSSGVAATISTPVTIQNMTSSYVTITSHVLTAFDLWEQAEALTRKNKEFFARLSTNVCTLALNSSLVDLVHYTRQGFQQLQELTKTP [AFF1]
melting temperature ([1]; cell cycle stage: G1/S): 49.6 °C
melting temperature ([1]; cell cycle stage: mitosis): 51.8 °C
solubility change mitosis (log2) [2]: 0.121
solubility in G1/S (log2) [3]: -0.222
thermal stability score [4, 5]: 0.0483
thermal stability score ([4]; cell cycle stage: mitosis): -0.483

MAARVLRARGAAWAGGLLQRAAPCSLLPRLRTWTSSSNRSREDSWLKSLFVRKVDPRKDAHSNLLAKKETSNLYKLQFHNVKPECLEAYNKICQEVLPKIHEDKHYPCTLVGTWNTWYGEQDQAVHLWRYEGGYPALTEVMNKLRENKEFLEFRKARSDMLLSRKNQLLLEFSFWNEPVPRSGPNIYELRSYQLRPGTMIEWGNYWARAIRFRQDGNEAVGGFFSQIGQLYMVHHLWAYRDLQTREDIRNAAWHKHGWEELVYYTVPLIQEMESRIMIPLKTSPLQ [GBAS]
melting temperature ([1]; cell cycle stage: G1/S): 53.7 °C
melting temperature ([1]; cell cycle stage: mitosis): 53.3 °C
solubility change mitosis (log2) [2]: -0.0463
solubility in G1/S (log2) [3]: 0.0162
thermal stability score [4, 5]: -0.626
thermal stability score ([4]; cell cycle stage: mitosis): -0.959

MAASASAAAGEEDWVLPSEVEVLESIYLDELQVIKGNGRTSPWEIYITLHPATAEDQDSQYVCFTLVLQVPAEYPHEVPQISIRNPRGLSDEQIHTILQVLGHVAKAGLGTAMLYELIEKGKEILTDNNIPHGQCVICLYGFQEKEAFTKTPCYHYFHCHCLARYIQHMEQELKAQGQEQEQERQHATTKQKAVGVQCPVCREPLVYDLASLKAAPEPQQPMELYQPSAESLRQQEERKRLYQRQQERGGIIDLEAERNRYFISLQQPPAPAEPESAVDVSKGSQPPSTLAAELSTSPAVQSTLPPPLPVATQHICEKIPGTRSNQQRLGETQKAMLDPPKPSRGPWRQPERRHPKGGECHAPKGTRDTQELPPPEGPLKEPMDLKPEPHSQGVEGPPQEKGPGSWQGPPPRRTRDCVRWERSKGRTPGSSYPRLPRGQGAYRPGTRRESLGLESKDGS [RNF25]
melting temperature ([1]; cell cycle stage: G1/S): 52.7 °C
melting temperature ([1]; cell cycle stage: mitosis): 52.7 °C
solubility change mitosis (log2) [2]: 0.00785
solubility in G1/S (log2) [3]: 0.537
thermal stability score [4, 5]: -0.22
thermal stability score ([4]; cell cycle stage: mitosis): -0.474

MAASCVLLHTGQKMPLIGLGTWKSEPGQVKAAVKYALSVGYRHIDCAAIYGNEPEIGEALKEDVGPGKAVPREELFVTSKLWNTKHHPEDVEPALRKTLADLQLEYLDLYLMHWPYAFERGDNPFPKNADGTICYDSTHYKETWKALEALVAKGLVQALGLSNFNSRQIDDILSVASVRPAVLQVECHPYLAQNELIAHCQARGLEVTAYSPLGSSDRAWRDPDEPVLLEEPVVLALAEKYGRSPAQILLRWQVQRKVICIPKSITPSRILQNIKVFDFTFSPEEMKQLNALNKNWRYIVPMLTVDGKRVPRDAGHPLYPFNDPY [AKR1A1]
melting temperature ([1]; cell cycle stage: G1/S): 52.1 °C
melting temperature ([1]; cell cycle stage: mitosis): 52.7 °C
solubility change mitosis (log2) [2]: -0.00767
solubility in G1/S (log2) [3]: 0.534
thermal stability score [4, 5]: -0.223
thermal stability score ([4]; cell cycle stage: mitosis): -1.09

MAASEAAVVSSPSLKTDTSPVLETAGTVAAMAATPSARAAAAVVAAAARTGSEARVSKAALATKLLSLSGVFAVHKPKGPTSAELLNRLKEKLLAEAGMPSPEWTKRKKQTLKIGHGGTLDSAARGVLVVGIGSGTKMLTSMLSGSKRYTAIGELGKATDTLDSTGRVTEEKPYDKITQEDIEGILQKFTGNIMQVPPLYSALKKDGQRLSTLMKRGEVVEAKPARPVTVYSISLQKFQPPFFTLDVECGGGFYIRSLVSDIGKELSSCANVLELTRTKQGPFTLEEHALPEDKWTIDDIAQSLEHCSSLFPAELALKKSKPESNEQVLSCEYITLNEPKREDDVIKTC [TRUB1]
melting temperature ([1]; cell cycle stage: G1/S): 50.2 °C
melting temperature ([1]; cell cycle stage: mitosis): 50.2 °C
solubility change mitosis (log2) [2]: -0.0378
solubility in G1/S (log2) [3]: 0.549
thermal stability score [4, 5]: 1.48
thermal stability score ([4]; cell cycle stage: mitosis): 1.46
